The source of these data is patent WO2000075333A1 (dated 2000).

For orientation: Kd means the constant that tells how readily two partners part at equilibrium. The low end stands for a tighter complex, the high end for a looser complex.

This assay deals with T1, CD20 (human, UniProt P11836 1-297).
T1 construct: whole, on cells; also called CD20 antigen; CD20-positive Ramos cell line
T1 sequence (looked up): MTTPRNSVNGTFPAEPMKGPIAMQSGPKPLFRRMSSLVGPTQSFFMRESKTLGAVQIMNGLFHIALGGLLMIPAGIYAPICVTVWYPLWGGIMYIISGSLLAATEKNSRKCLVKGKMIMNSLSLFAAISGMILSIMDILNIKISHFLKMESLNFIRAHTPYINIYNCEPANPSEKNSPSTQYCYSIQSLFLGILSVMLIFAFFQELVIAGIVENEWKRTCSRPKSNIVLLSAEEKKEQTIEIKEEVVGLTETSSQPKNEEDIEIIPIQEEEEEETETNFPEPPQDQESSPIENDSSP
The assay is described as follows: saturation binding of radiolabeled mAb to Ramos cells (10^7 cells), nonlinear regression, concentrations adjusted for immunoreactivity.

B1: B9E9 mAb (antibody, V domains shown)
VH: QVQLVQSGAELVKPGASVKMSCKASGYTFTSYNMHWVKQTPGQGLEWIGAIYPGNGDTSYNQKFKGKATLTADKSSSTAYMQLSSLTSEDSAVYYCARAQLRPNYWYFDVWGAGTTVTVSS
VL: DIVLSQSPAILSASPGEKVTMTCRASSSVSYMHWYQQKPGSSPKPWIYATSNLASGVPARFSGSGSGTSYSLTISRVEAEDAATYYCQQWISNPPTFGAGTKLELK
Molecule B1 registered a Kd of 9.75 nM.
